Data set [1] concerns the target T1, N-(Z-DEVD)-N′-acetyl-Rhodamine 110 SEQ ID NO:5.
T1 chain: DEVD

The target of data set [2] is T2, N-(Z-VD)-N′-acetyl-Rhodamine 110.
T2 chain: VD

In data set [3] the target is T3, N-Z-EVD-N′-ethoxycarbonyl-R110.
T3 chain: EVD

In data set [4] the target is T4, N-Ac-DEVD-N′-hexyloxycarbonyl-R110 SEQ ID NO:5.
T4 chain: DEVD

In data set [5] the target is T5, N-Z-DEVD-N′-ethoxycarbonyl-R110 SEQ ID NO:5.
T5 chain: DEVD

For data set [6], the target named is T6, N-Ac-LEVD-N′-ethoxycarbonyl R110 SEQ ID NO:9.
T6 chain: LEVD

Data set [7] addresses T7, N-Ac-DEVD-N′-octyloxycarbonyl-R110 SEQ ID NO:5.
T7 chain: DEVD

For data set [8], the target named is T8, N-Z-VD-N′-ethoxycarbonyl-R110.
T8 chain: VD

Data set [9] has as its target T9, N-Ac-DEVD-N′-ethoxycarbonyl-R110 SEQ ID NO:5.
T9 chain: DEVD

Data set [10] concerns the target T10, N-Ac-DEVD-N′-(ethylthio)carbonyl-R110 SEQ ID NO:5.
T10 chain: DEVD

In data set [11] the target is T11, N-(Z-YVAD)-N′-acetyl-Rhodamine 110 SEQ ID NO:2.
T11 chain: YVAD

Data set [12] has as its target T12, N-(Z-VAD)-N′-acetyl-Rhodamine 110.
T12 chain: VAD

The next data set concerns the target T13, (Z-VAD)2-Rhodamine 110.
T13 chain: VAD

In data set [13] the target is T14, (Z-YVAD)2-Rhodamine 110 SEQ ID NO:2.
T14 chain: YVAD

B1: Recombinant CPP32 protein (protein)
chain: SGISLDNSYKMDYPEMGLCIIINNKNFHKSTGMTSRSGTDVDAANLRETFRNLKYEVRNKNDLTREEIVELMRDVSKEDHSKRSSFVCVLLSHGEEGIIFGTNGPVDLKKITNFFRGDRCRSLTGKPKLFIIQACRGTELDCGIETDSGVDDDMACHKIPVEADFLYAYSTAPGYYSWRNSKDGSWFIQSLCAMLKQYADKLEFMHILTRVNRKVATEFESFSFDATFHAKKQIPCIVSMLTKELYFYH
As for B1, the values for the Michaelis-Menten constant (Km) in [1] and in data set [2] were 154 µM and 60 µM, respectively. Further, the Vmax in data set [1] came out at 160 nmol/min.

B2: recombinant human caspase-3 (protein)
chain: B1 chain
With B2, the “Cleavage by Caspase-3” value in data set [3] is recorded as “Fair”; in data set [4], “Good”; in [5], “Good”; in data set [7], “Good”; in [8], “Poor”; in data set [9], “Good”. In addition, in [10], the “Cleavage by Caspase-3” value was “Good”. The “signal above the enzyme blank value (fluorescence of cleaved substrate)” value in [6] was “a signal that was about 5-fold above the enzyme blank value”. The “amount of enzyme needed for cleavage, against tri- and tetrapeptide substrates” value in data set [8] was “a 50-fold greater amount of enzyme than needed for tri- and tetrapeptide substrates”.

B3: recombinant human caspase-8 (protein)
chain: SESQTLDKVYQMKSKPRGYCLIINNHNFAKAREKVPKLHSIRDRNGTHLDAGALTTTFEELHFEIKPHDDCTVEQIYEILKIYQLMDHSNMDCFICCILSHGDKGIIYGTDGQEAPIYELTSQFTGLKCPSLAGKPKVFFIQACQGDNYQKGIPVETDSEEQPYLEMDLSSPQTRYIPDEADFLLGMATVNNCVSYRNPAEGTWYIQSLCQSLRERCPRGDDILTILTEVNYEVSNKDDKKNMGKQMPQPTFTLRKKLVFPSD
For B3, the “signal to background ratio (fluorescence of cleaved substrate)” value in [6] was “signal to background ratios of about 13 for caspase-6 to about 26 for caspase-8”.

B4: recombinant human caspase-7 (protein)
chain: AKPDRSSFVPSLFSKKKKNVTMRSIKTTRDRVPTYQYNMNFEKLGKCIIINNKNFDKVTGMGVRNGTDKDAEALFKCFRSLGFDVIVYNDCSCAKMQDLLKKASEEDHTNAACFACILLSHGEENVIYGKDGVTPIKDLTAHFRGDRCKTLLEKPKLFFIQACRGTELDDGIQADSGPINDTDANPRYKIPVEADFLFAYSTVPGYYSWRSPGRGSWFVQALCSILEEHGKDLEIMQILTRVNDRVARHFESQSDDPHFHEKKQIPCVVSMLTKELYFSQ
B4: in [6], the “fluorescent signal of cleaved substrate” value was “Caspase-7 gave virtually no signal”.

B5: recombinant human caspase-6 (protein)
chain: AFYKREMFDPAEKYKMDHRRRGIALIFNHERFFWHLTLPERRGTCADRDNLTRRFSDLGFEVKCFNDLKAEELLLKIHEVSTVSHADADCFVCVFLSHGEGNHIYAYDAKIEIQTLTGLFKGDKCHSLVGKPKIFIIQACRGNQHDVPVIPLDVVDNQTEKLDTNITEVDAASVYTLPAGADFLMCYSVAEGYYSHRETVNGSWYIQDLCEMLGKYGSSLEFTELLTLVNRKVSQRRVDFCKDPSAIGKKQVPCFASMLTKKLHFFPKSN
As for B5, the “signal to background ratio (fluorescence of cleaved substrate)” value in data set [6] was “signal to background ratios of about 13 for caspase-6 to about 26 for caspase-8”.

B6: Recombinant ICE protein (protein)
chain: NPAMPTSSGSEGNVKLCSLEEAQRIWKQKSAEIYPIMDKSSRTRLALIICNEEFDSIPRRTGAEVDITGMTMLLQNLGYSVDVKKNLTASDMTTELEAFAHRPEHKTSDSTFLVFMSHGIREGICGKKHSEQVPDILQLNAIFNMLNTKNCPSLKDKPKVIIIQACRGDSPGVVWFKDSVGVSGNLSLPTTEEFEDDAIKKAHIEKDFIAFCSSTPDNVSWRHPTMGSVFIGRLIEHMQEYACSCDVEEIFRKVRFSFEQPDGRAQMPTTERVTLTRCFYLFPGH
B6: the Km in data set [11] was 32 µM; in data set [1], 12 µM; in data set [12], 70 µM; in the data set with (Z-VAD)2-Rhodamine 110, 21 µM; in data set [13], 6 µM. The maximum rate (Vmax) in [11] was determined as 96 nmol/min; in [1], 9 nmol/min; in [12] it was 4 nmol/min; with (Z-VAD)2-Rhodamine 110, 9 nmol/min; in data set [13], 14 nmol/min.

What is called Km is the concentration of substrate that gives half-maximal velocity. In general, Vmax refers to the top rate of the reaction or transport when substrate is in excess.
